Measured values as given in patent US10766952B2, “Methods for reducing migraine frequency in a subject in need thereof” (Beth Israel Deaconess Medical Center, Inc., priority 2017, dated 2020).

What was measured:
Format in all cases: in vivo, rat
[1] = test system: naïve high-threshold (HT) trigeminovascular neurons; assay: Single-unit recording of naïve central trigeminovascular neurons, HT neurons; conditions: 30 mg/kg IV
Source text: (§1) Experiments were approved by the Beth Israel Deaconess Medical Center and Harvard Medical School standing committees on animal care, and in accordance with the U.S. National Institutes of Health Guide for the Care and Use of Laboratory Animals. Male and female Sprague-Dawley rats (250-350 g) were anesthetized with urethane (0.9-1.2 g/kg i.p.). They were fitted with an intra-tracheal tube to allow artificial ventilation (0.1 L/min of (O2), and an intra-femoral-vein cannula for later infusion of drugs. Rats were placed in a stereotaxic apparatus, and core temperature was kept at 37° C. using a heating blanket. End-tidal […] was continuously monitored and kept within physiological range (3.5-4.5 pCO2). Once stabilized, rats were paralyzed with rocuronium bromide (10 mg/ml, 1 ml/hr continuous intravenous infusion) and ventilated. For stimulation of the cranial dura later in the experiment, a 5×5-mm opening was carefully carved in the parietal and occipital bones in front and behind the lambda suture, directly above the left transverse sinus. The exposed dura was kept moist using a modified synthetic interstitial fluid (135 mM NaCl, 5 mM KCl, 1 mM MgCl2, 5 mM CaCl2, 10 mM glucose and 10 mM Hepes, pH 7.2). For single-unit recording in the spinal trigeminal nucleus, a segment of the spinal cord between the obex and C2 was uncovered from overlying tissues, stripped of the dura mater, and kept moist with mineral oil.
To record neuronal activity, a tungsten microelectrode (impedance 3-4 MΩ) was lowered repeatedly into the spinal trigeminal nucleus (STN) in search of central trigeminovascular neurons receiving convergent input from the dura and facial skin. Trigeminovascular neurons were first identified based on their responses to electrical stimulation of the dura. […] Dural receptive fields were mapped by indenting the dura (with the 4.19 g VFH monofilament) at points separated by 1 mm mediolaterally and rostrocaudally. Points at which dural indentation produced a response in ≥50% of the trials were considered inside the neurons receptive field. Cutaneous receptive fields were mapped by applying innocuous and noxious mechanical stimulation to all facial skin areas and the cornea. An area was considered outside the receptive field if no stimulus produced a response in ≥50% of the trials. Responses to mechanical stimulation of the skin were determined by applying brief (10 s) innocuous and noxious stimuli to the most sensitive portion of the cutaneous receptive field. Innocuous stimuli consisted of slowly passing a soft bristled brush across the cutaneous receptive field (one 5-s brush stroke from caudal to rostral and one 5-s brush stroke from rostral to caudal) and pressure applied with a loose arterial clip. Noxious stimuli consisted of pinch with a strong arterial clip (Palecek et al., 1992, J. Neurophysiol. 67:1562-1573; Dado et al., 1994, J. Neurophysiol. 71:981-1002; Burstein et al., 1998, J. Neurophysiol. 79:964-982). More intense or prolonged stimuli were not used to avoid inducing prolonged changes in spontaneous neuronal discharge or response properties. […] Real-time waveform discriminator was used to create and store a template for the action potential evoked in the neuron under study by electrical pulses on the dura; spikes of activity matching the template waveform were acquired and analyzed online and offline using Spike 2 software (CED, Cambridge, UK). […]

[2] = test system: first-order trigeminovascular neurons (A-delta and C-type meningeal nociceptors); assay: Single-unit recording of first-order trigeminovascular neurons in the trigeminal ganglion activated by CSD
Procedure: CSD was induced by pinprick 4 hours after drug/isotype infusion.

[3] = test system: central trigeminovascular neurons in the medullary dorsal horn; assay: Activation of central trigeminovascular neurons by picrotoxin-induced seizure; conditions: 30 mg/kg intravenously four hours before induction of seizure
Source text: Cortical electrodes were used to trace the magnitude, extent and progression of epileptiform seizures.
Surgical preparation and single-unit recording. Single-unit recordings were obtained from neurons in the trigeminal ganglion and dorsal horn as described in previous studies (Burstein et al. (1998) J. Neurophysiol. 79: 964-82; Strassman and Levy (2006) J. Neurophysiol. 95: 1298-306; Strassman et al. (1996) Nature 384: 560-4; Zhang et al. (2010) J. Neurosci. 30: 8807-14; and Zhang et al. (2011) Ann. Neurol. 69: 855-65). Experiments were done in adult Sprague-Dawley rats (250 g to 350 g). Animals were anesthetized with urethane (1.2-1.5 g/kg), artificially ventilated with oxygen, and paralyzed. Body temperature was controlled, and end-tidal CO2 and oxygen saturation was monitored. For ganglion recordings, four separate craniotomies were made: over the contralateral cortex, to advance the microelectrode; over the ipsilateral parietal cortex, and the ipsilateral occipital cortex, for application of the picrotoxin and recording of electrocorticogram activity; and over the ipsilateral transverse sinus, for electrical and mechanical stimulation of dural afferents, and lidocaine application. For dorsal horn recording, the same craniotomies were made over the ipsilateral cortex and the ipsilateral transverse sinus, but no contralateral craniotomy was made. Instead, a laminectomy was made to expose the upper cervical spinal cord (C1-2) for microelectrode recording. In both the trigeminal ganglion and the dorsal horn recording experiments, the search stimulus for finding dura-sensitive neurons is single-shock electrical stimulation applied to the dura covering the transverse sinus.
Seizure induction and electrocorticogram recording. […] For verification of seizure induction, cortical activity was recorded with a glass micropipette (0.9% saline, ˜1 megohm, 7 μm tip) placed just below the surface of the cerebral cortex, at the parietal and the occipital site. […]

[4] = test system: naïve wide-dynamic range (WDR) trigeminovascular neurons; assay: Single-unit recording of naïve central trigeminovascular neurons, WDR neurons; conditions: 30 mg/kg IV
Source text: as §1, with “For single-unit recording in the spinal trigeminal nucleus, a segment of the spinal cord between the obex and C2 was uncovered from overlying tissues, stripped of the dura mater, and kept moist with mineral oil.” left out
To record neuronal activity, a tungsten microelectrode (impedance 3-4 MΩ) was lowered repeatedly into the spinal trigeminal nucleus (STN) in search of central trigeminovascular neurons receiving convergent input from the dura and facial skin. […] Responses to mechanical stimulation of the skin were determined by applying brief (10 s) innocuous and noxious stimuli to the most sensitive portion of the cutaneous receptive field. […] Real-time waveform discriminator was used to create and store a template for the action potential evoked in the neuron under study by electrical pulses on the dura; spikes of activity matching the template waveform were acquired and analyzed online and offline using Spike 2 software (CED, Cambridge, UK). […]

B1: fremanezumab (antibody)
heavy: EVQLVESGGGLVQPGGSLRLSCAASGFTFSNYWISWVRQAPGKGLEWVAEIRSESDASATHYAEAVKGRFTISRDNAKNSLYLQMNSLRAEDTAVYYCLAYFDYGLAIQNYWGQGTLVTVSSASTKGPSVFPLAPCSRSTSESTAALGCLVKDYFPEPVTVSWNSGALTSGVHTFPAVLQSSGLYSLSSVVTVPSSNFGTQTYTCNVDHKPSNTKVDKTVERKCCVECPPCPAPPVAGPSVFLFPPKPKDTLMISRTPEVTCVVVDVSHEDPEVQFNWYVDGVEVHNAKTKPREEQFNSTFRVVSVLTVVHQDWLNGKEYKCKVSNKGLPSSIEKTISKTKGQPREPQVYTLPPSREEMTKNQVSLTCLVKGFYPSDIAVEWESNGQPENNYKTTPPMLDSDGSFFLYSKLTVDKSRWQQGNVFSCSVMHEALHNHYTQKSLSLSPGK
light: EIVLTQSPATLSLSPGERATLSCKASKRVTTYVSWYQQKPGQAPRLLIYGASNRYLGIPARFSGSGSGTDFTLTISSLEPEDFAVYYCSQSYNYPYTFGQGTKLEIKRTVAAPSVFIFPPSDEQLKSGTASVVCLLNNFYPREAKVQWKVDNALQSGNSQESVTEQDSKDSTYSLSSTLTLSKADYEKHKVYACEVTHQGLSSPVTKSFNRGEC
notes: humanized anti-CGRP antagonist antibody, vectors ATCC PTA-6867 and PTA-6866
spontaneous activity of HT neurons ([1]; female rats): did not reduce the spontaneous activity | decrease of firing of HT neurons in response to mechanical stimulation of the dura ([1]; female rats, p=0.017): 61% | responses of HT neurons to innocuous (brush, pressure) or noxious (pinch) mechanical stimulation of the skin or the cornea ([1]; male or female rats): did not alter the responses | decrease of firing of HT neurons in response to mechanical stimulation of the dura ([1]; male rats, p=0.047): 75% | decrease of spontaneous neuronal firing of HT neurons ([1]; male rats, within 3-4 hrs, p=0.040): 90% | activation of meningeal nociceptors by CSD ([2]; FIGS. 20A and 20B): prevents the activation of most a-delta and some C-type meningeal nociceptors | a-delta fibers activated by CSD ([2]; male rats, 30 mg/kg IV 4 hours before CSD, FIG. 21A): 14% | C-fibers activated by CSD ([2]; male rats, 30 mg/kg IV 4 hours before CSD, FIG. 21B): 23% | neurons tested that were activated by CSD ([2]; male rats, 30 mg/kg IV 4 hours before CSD, all neurons): 20% | neurons activated by the seizure [3]: 15% | neurons activated by the seizure (activated/tested) [3]: 2/13 | activation of central trigeminovascular neuron by seizure ([3]; FIG. 24): prevented the activation of a central trigeminovascular neuron | spontaneous activity of WDR neurons ([4]; female rats): did not reduce the spontaneous activity | sensitivity of WDR neurons to mechanical stimulation of the dura ([4]; male and female rats): not the WDR neurons | responses of WDR neurons to innocuous (brush, pressure) or noxious (pinch) mechanical stimulation of the skin or the cornea ([4]; male or female rats): did not alter the responses
